Measured values taken from publication PMC3428924.

What was measured:
[1] = molecular target: elongation factor 1B alpha (eEF1Bα) of C. fasciculata (C. fasciculata (endogenous in choanomastigotes)); experiment: SEC
[2] = molecular target: elongation factor 1B beta (eEF1Bβ) of C. fasciculata (C. fasciculata (endogenous in choanomastigotes)); experiment: SEC

Row | stoichiometry N [1] | stoichiometry N [2] | Substance
1 | 2 γ per α | 2 γ per β | elongation factor 1B gamma (eEF1Bγ) of C. fasciculata (natural protein)
2 |  | 1 α per β | elongation factor 1B alpha (eEF1Bα) of C. fasciculata (natural protein)
